Test results reported in US20080070264A1, “Intracellular Signaling-Induced Ret-Independent Gdnf Receptor-Effected Morphological Changes” (JPMORGAN CHASE BANK N.A., priority 2003, published 2008).

Experiments:
[1] = test system: GFRα1-expressing MDCK cells; assay: Branching tubule formation assay in 3-D collagen gel; type: cell-based, dog
Experimental: (§1) From the total amount of cysts in the field, the percentage of cysts with long branches was calculated. Only branches with lengths of more than two cyst diameters were counted.
(§2) FIG. 2C: Dose-dependence of GDNF-induced branching of GFRα1- and RET/GFRα1-expressing MDCK cells. GDNF concentrations are per ml (x-axis). Results are reported as fold of branching cysts count over the non-induced control. Means±standard errors of the mean of five to eight counted fields are shown. The results are representative of five (A and B) and three (C) independent experiments, p<0.001.
(§3) Trypsinized cells were mixed 1:3 with collagen type I solution and plated. MEM with 10% FCS was overlaid on the gels with or without GDNF (Cephalon Inc. or R&D Systems, Inc.) or 50 ng/ml HGF. Cells in collagen were cultured for 3 days; GDNF-containing medium was changed daily. For quantification, cells were cultured for 3 days, fixed by 3% glutaraldehyde in PBS and counted under a light microscope.
(§4) To avoid the effect of possible contamination of GDNF preparation, recombinant GDNF from two different sources were tested. One tested GDNF was expressed in baculovirus-infected insect cells (Cephalon Inc.), the other was expressed in mouse myeloma cell line NSO (R&D Systems, Inc.).

[2] = test system: RET/GFRα1-expressing MDCK cells; assay: as above; type: cell-based, dog
Experimental: as §1, §2, §3, §4

Src-type kinases = assay: Src activation (Tyr418 phosphorylation) in MDCK cells; type: cell-based, dog; details: GFRα1-expressing and RET/GFRα1-expressing MDCK cells
Experimental: FIG. 7A: Dose-dependent Src-kinase activation by GDNF in GFRα1-expressing and RET/GFRα1-expressing MDCK cells. The activation of Src-type kinases was observed after 15 minutes. The concentrations of GDNF are indicated. The numbers below the lane reflect the fold of increase in phosphorylation of Tyr418 of Src. The lower panels show the re-probing of the same filter with anti-Src antibodies. The results are representative of three independent experiments.
To analyze Src activation, subconfluent GFRα1- and RET/GFRα1-expressing MDCK cell cultures were starved for 24 h before induction in serum-free MEM. After 10 min incubation at 37° C. with 50 ng/ml GDNF (Cephalon Inc. or R&D Systems, Inc.) or 50 ng/ml HGF (Sigma) cells were lysed in lysis buffer supplemented with 1 mM Na-orthovanadate and analyzed by Western blotting as described (Lindahl et al., 2001). The Western blots were probed with the indicated antibodies and developed with ECL reagents (Amersham Pharmacia Biotech). Antibodies used included anti-Y^418 Src and anti-Src (BioSource International).
Possible candidates for messengers between GDNF-GFRα1 complex and MET are Src family kinases. […]

MET = target: T1, MET (Chlorocebus aethiops, UniProt Q2IBA6); assay: 125I-labelled GDNF and HGF binding, chemical crosslinking, anti-MET immunoprecipitation; details: RET/GFRα1-expressing MDCK cells; data not shown
T1 construct: different combinations of the MET β-subunit (140 kDa), Met-αβ heterodimer (190 kDa) and HGF complexes; endogenous in cells; host or cells: COS7 cells (wild type for 125I-HGF; transfected with pc3-GFRα1/GFP for 125I-GDNF)
T1 sequence (Q2IBA6 25-1381): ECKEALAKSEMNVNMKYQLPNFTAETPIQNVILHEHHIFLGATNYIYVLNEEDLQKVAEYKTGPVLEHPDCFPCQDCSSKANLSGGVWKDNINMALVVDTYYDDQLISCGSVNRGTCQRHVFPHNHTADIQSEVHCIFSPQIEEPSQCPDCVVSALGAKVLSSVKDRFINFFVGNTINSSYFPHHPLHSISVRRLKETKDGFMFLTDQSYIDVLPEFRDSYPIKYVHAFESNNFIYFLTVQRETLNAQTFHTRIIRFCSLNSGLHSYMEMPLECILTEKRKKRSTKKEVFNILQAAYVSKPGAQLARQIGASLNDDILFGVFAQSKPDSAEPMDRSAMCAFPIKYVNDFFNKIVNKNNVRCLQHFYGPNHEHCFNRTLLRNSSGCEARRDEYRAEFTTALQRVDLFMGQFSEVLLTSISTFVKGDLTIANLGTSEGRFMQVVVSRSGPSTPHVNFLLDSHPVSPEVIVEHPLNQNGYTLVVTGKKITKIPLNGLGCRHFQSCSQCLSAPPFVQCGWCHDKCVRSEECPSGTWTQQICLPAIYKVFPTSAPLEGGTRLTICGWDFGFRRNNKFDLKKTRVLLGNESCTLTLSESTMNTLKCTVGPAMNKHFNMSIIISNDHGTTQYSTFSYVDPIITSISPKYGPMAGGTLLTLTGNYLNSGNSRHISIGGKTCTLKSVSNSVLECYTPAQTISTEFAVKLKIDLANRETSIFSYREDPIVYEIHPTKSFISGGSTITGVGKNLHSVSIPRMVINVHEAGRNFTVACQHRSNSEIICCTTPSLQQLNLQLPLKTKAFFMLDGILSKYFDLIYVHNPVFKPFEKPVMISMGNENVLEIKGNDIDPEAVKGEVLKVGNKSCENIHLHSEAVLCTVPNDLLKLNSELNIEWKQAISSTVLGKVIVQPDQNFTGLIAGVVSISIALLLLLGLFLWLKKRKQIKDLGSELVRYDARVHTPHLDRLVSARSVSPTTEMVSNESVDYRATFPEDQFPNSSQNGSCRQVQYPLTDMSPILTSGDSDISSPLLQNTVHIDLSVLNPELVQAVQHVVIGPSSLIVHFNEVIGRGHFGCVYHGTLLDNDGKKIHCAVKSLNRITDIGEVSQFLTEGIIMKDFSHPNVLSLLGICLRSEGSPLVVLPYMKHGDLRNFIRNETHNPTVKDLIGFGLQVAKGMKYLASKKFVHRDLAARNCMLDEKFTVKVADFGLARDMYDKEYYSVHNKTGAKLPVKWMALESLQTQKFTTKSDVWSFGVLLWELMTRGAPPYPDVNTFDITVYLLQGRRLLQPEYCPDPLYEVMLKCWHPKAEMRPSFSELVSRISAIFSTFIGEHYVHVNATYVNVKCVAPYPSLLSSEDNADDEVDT
Experimental: Binding of ^125I-GDNF to COS7 cells transfected with GFRα1, and ^125-HGF to wild-type COS7, followed by cross-linking with EDC together with sulfo-NHS. Inmunoprecipitates with anti-MET antibodies (IP-Met) were analysed by SDS-PAGE under reducing conditions. ^125I-HGF α subunit and proHGF are marked by arrows. ^125I-HGF/MET complexes are denoted by arrow heads. The results are representative of five independent experiments.
GDNF and HGF were enzymatically iodinated with [^125I]NaI (Amersham Pharmacia Biotech) with lactoperoxidase to a specific activity of 100.000 cpm/ng as described (31). COS7 cells were transfected with pc3-GFRα1/GFP two days prior the assay. 2 nM of ^125I-GDNF or 1 nM of ^125I-HGF were allowed to bind to cell monolayers for 1-2 h on ice in binding buffer (DMEM/15 mM HEPES, pH 7.5; 0.2% BSA), washed, and chemically cross-linked for 30 min at room temperature using BS^3 ([Bis(sulfosuccinimidyl)suberate]), DSS ((Disulfosuccinimidyl)suberate), DSP (3,3-Dithio-bis-(sulfosuccinimidyl)propionate) or EDC ((1-Ethyl-3-[3-dimethylaminopropyl]carbodiimide Hydrochloride)) with sulfo-NHS (N-Hydroxysulfosuccinimide) (Pierce). The non-specific binding of GDNF was estimated by the amount of ^125I-GDNF binding to cells in the presence of 300 n M unlabeled GDNF. Cells were washed, lysed and immunoprecipitated with anti-MET antibodies as described. Gels were dried and analyzed by phosphorimaging in a BAS Reader 1800 (Fuji).

[3] = ligand 100 ng/ml, 3-D collagen gel

B1: GDNF: recombinant glial cell line-derived neurotrophic factor from Cephalon Inc. (baculovirus-infected insect cells) or R&D Systems, Inc. (mouse myeloma NSO) (protein, UniProt P39905 78-211, looked up)
Glial cell line-derived …: SPDKQMAVLPRRERNRQAAAANPENSRGKGRRGQRGKNRGCVLTAIHLNVTDLGLGYETKEELIFRYCSGSCDAAETTYDKILKNLSRNRRLVSDKVGQACCRPIAFDDDLSFLDDNLVYHILRKHSAKRCGCI
Q: What does the source list for B1?
A: GDNF concentration that evoked tubulogenesis ([1]; cells expressing GFRα1 but not RET, dose-response FIG. 2C): 0.1 pg/ml; branching tubule formation [1, 3]: formed branching tubules; branching tubulogenesis ([1]; wild-type MDCK transduced with an adenovirus expressing GFRα1, data not shown): induced branching tubulogenesis; GDNF concentration at which cells started to branch ([2]; cells co-expressing RET and GFRα1, dose-response FIG. 2C): 0.1 ng/mL; branching tubule formation [2, 3]: formed branching tubules; GDNF concentration that saturated Src phosphorylation (Src-type kinases): 0.1 pg/mL; time at which activation of Src-type kinases was observed (Src-type kinases): 15 min; direct association of the GDNF receptor complex and MET (MET): no direct association
